{"source": "patent US20160102367A1", "about": "(TRUSTEES OF COLUMBIA UNIVERSITY IN THE CITY OF NEW YORK, published 2016)", "assay_in_all_cases": "streptavidin-biotin peptide pull down, anti-GST Western blot", "key": {"[1]": {"target": "T1, GST-FYN-SH2 (wild type FYN SH2 domain, codons 148-231, N-terminal GST tag) (UniProt P06241 148-231)", "T1 construct": "range 148-231; Expressed in E. coli Rosetta 2(DE3) and purified on glutathione Sepharose; also called GST-SH2-FYN; GST-FYN SH2 domain; not shown: N-terminal GST tag from the pGEX4-T1 vector", "T1 sequence (P06241 148-231)": "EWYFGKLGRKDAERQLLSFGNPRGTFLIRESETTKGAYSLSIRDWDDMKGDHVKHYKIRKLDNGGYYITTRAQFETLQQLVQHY", "description": "(§1) GST-tagged FYN SH2 domain proteins were purified by binding them to immobilized glutathione Sepharose beads (Thermo scientific) and eluting them with 50 mM reduced Glutathione, 50 mM Tris, pH 7.4, 150 mM NaCl, 5% glycerol, 5 mM β-mercaptoethanol. Protein expression and purity were assessed by Coomassie staining. Binding assay was performed with Pull-Down Biotinylated Protein-protein Interaction Kit (Thermo scientific) according to the manufacturer's instructions using an amino acid 527-537 FYN biotinylated peptide (biotin-[…])(SEQ ID NO: 1); an amino acid 527-537 pY531 FYN biotinylated peptide (biotin-TEPQpYQPGENL)(SEQ ID NO: 2) and an amino acid 527-537 […] FYN biotinylated peptide (biotin-[…])(SEQ ID NO: 3) (Anaspec Inc). Synthetic biotinylated peptides were incubated with purified GST-FYN SH2 domain, mutant FYN SH2 domain or GST alone for 1 h at 4° C. Interacting proteins were resolved on 10% SDS-polyacrylamide gel electrophoresis (SDS-PAGE) and transferred to a PVDF membrane and subjected to Western blot with an anti-GST antibody.\n(§2) In addition, structure model analysis of FYN and FYN mutant proteins further supported this hypothesis. (See FIG. 4C which is a molecular ribbon representation of wild type FYN protein structure showing the positioning of the FYN SH2 domain and the C terminal Tyr531 phosphosite and FIG. 4D which illustrates structure modeling of FYN Tyr531His, FYN Arg176Cys and FYN Leu174Arg mutant proteins.) The interaction between GST-FYN-SH2 recombinant proteins and biotinylated C-terminal FYN peptides encompassing the position Tyr531 was analyzed. In these assays, wild type GST-FYN-SH2 was effectively pulled down with a Tyr531 phosphopeptide, but not with the corresponding unphosphorylated sequence or with a peptide containing a Tyr531His substitution. […]"}, "GST-SH2-FYN Leu174Arg": {"target": "T2, GST-SH2-FYN Leu174Arg (Homo sapiens (Human), UniProt P06241 148-231)", "T2 construct": "also called GST-FYN-SH2 L174R; not shown: The N-terminal GST tag and the pGEX4-T1 linker", "T2 sequence (P06241 148-231 L174R limits assumed)": "as the sequence (P06241 148-231) above, with L27R counted along it", "description": "as §1, §2"}, "GST-SH2-FYN Arg176Cys": {"target": "T3, GST-SH2-FYN Arg176Cys (Homo sapiens (Human), UniProt P06241 148-231)", "T3 construct": "also called GST-FYN-SH2 R176C; not shown: The N-terminal GST tag and the pGEX4-T1 linker", "T3 sequence (P06241 148-231 R176C limits assumed)": "as the sequence (P06241 148-231) above, with R29C counted along it", "description": "as §1, §2"}}, "note": "Non-standard residues stand in square brackets, D forms with d. No end group written: not given here. *: point of attachment. Biotin = O=C1N[C@H]2[C@H](CS[C@H]2CCCCC(=O)*)N1; pY = N[C@@H](Cc1ccc(OP(=O)(O)O)cc1)C(=O)O", "data": [{"binder": "Biotin-TEPQHQPGENL (also called mutant Tyr531His FYN C-terminal peptide)", "note": "[amino acid 527-537 Y51H FYN biotinylated peptide (biotin-TEPQHQPGENL)]", "values": [{"measurement": "binding result", "setting": "[1]", "result": "no binding"}]}, {"binder": "Biotin-TEPQ[pY]QPGENL (Synthetic peptide (Anaspec Inc); also called Tyr531 phosphopeptide; P-Tyr531 FYN C-terminal peptide)", "note": "[amino acid 527-537 pY531 FYN biotinylated peptide (biotin-TEPQpYQPGENL)]", "values": [{"measurement": "binding result", "setting": "GST-SH2-FYN Leu174Arg", "result": "no binding"}, {"measurement": "binding result", "setting": "GST-SH2-FYN Arg176Cys", "result": "no binding"}]}]}
